B1: Thyroid hormone receptor beta (Homo sapiens), P10828-1 (parent)
chain: MTPNSMTENGLTAWDKPKHCPDREHDWKLVGMSEACLHRKSHSERRSTLKNEQSSPHLIQTTWTSSIFHLDHDDVNDQSVSSAQTFQTEEKKCKGYIPSYLDKDELCVVCGDKATGYHYRCITCEGCKGFFRRTIQKNLHPSYSCKYEGKCVIDKVTRNQCQECRFKKCIYVGMATDLVLDDSKRLAKRKLIEENREKRRREELQKSIGHKPEPTDEEWELIKTVTEAHVATNAQGSHWKQKRKFLPEDIGQAPIVNAPEGGKVDLEAFSHFTKIITPAITRVVDFAKKLPMFCELPCEDQIILLKGCCMEIMSLRAAVRYDPESETLTLNGEMAVTRGQLKNGGLGVVSDAIFDLGMSLSSFNLDDTEVALLQAVLLMSSDRPGLACVERIEKYQDSFLLAFEHYINYRKHHVTHFWPKLLMKVTDLRMIGACHASRFLHMKVECPTELFPPLFLEVFED

In one experiment the parent is B1. The conditions noted are these: with ncoa3_human NCOA3, Q9Y6Q9.
MTPNSMTENGLTAWDKPKHCPDREHDWKLVGMSEACLHRKSHSERRSTLKNEQSSPHLIQTTWTSSIFHLDHDDVNDQSVSSAQTFQTEEKKCKGYIPSYLDKDELCVVCGDKATGYHYRCITCEGCKGFFRRTIQKNLHPSYSCKYEGKCVIDKVTRNQCQECRFKKCIYVGMATDLVLDDSKRLAKRKLIEENREKRRREELQKSIGHKPERTDEEWELIKTVTEAHVATNAQGSHWKQKRKFLPEDIGQAPIVNAPEGGKVDLEAFSHFTKIITPAITRVVDFAKKLPMFCELPCEDQIILLKGCCMEIMSLRAAVRYDPESETLTLNGEMAVTRGQLKNGGLGVVSDAIFDLGMSLSSFNLDDTEVALLQAVLLMSSDRPGLACVERIEKYQDSFLLAFEHYINYRKHHVTHFWPKLLMKVTDLRMIGACHASRFLHMKVECPTELFPPLFLEVFED [P214R]: the “effect of a mutation on the interaction” value is “increasing interaction”.
Same read-out and setting: in the case of MTPNSMTENGLTAWDKPKHCPDREHDWKLVGMSEACLHRKSHSERRSTLKNEQSSPHLIQTTWTSSIFHLDHDDVNDQSVSSAQTFQTEEKKCKGYIPSYLDKDELCVVCGDKATGYHYRCITCEGCKGFFRRTIQKNLHPSYSCKYEGKCVIDKVTRNQCQECRFKKCIYVGMATDLVLDDSKRLAKRKLIEENREKRRREELQKSIGHKPEPTDEEWELIKTVTEAHVATNAQGSHWKQKRKFLPEDIGQAPIVNAPEGGKVDLEAFSHFTKIITPAITRVVDFAIKLPMFCELPCEDQIILLKGCCMEIMSLRAAVRYDPESETLTLNGEMAVTRGQLKNGGLGVVSDAIFDLGMSLSSFNLDDTEVALLQAVLLMSSDRPGLACVERIEKYQDSFLLAFEHYINYRKHHVTHFWPKLLMKVTDLRMIGACHASRFLHMKVECPTELFPPLFLEVFED [K288I] it was “disrupting interaction”.
Still for that read-out and setting: in the case of MTPNSMTENGLTAWDKPKHCPDREHDWKLVGMSEACLHRKSHSERRSTLKNEQSSPHLIQTTWTSSIFHLDHDDVNDQSVSSAQTFQTEEKKCKGYIPSYLDKDELCVVCGDKATGYHYRCITCEGCKGFFRRTIQKNLHPSYSCKYEGKCVIDKVTRNQCQECRFKKCIYVGMATDLVLDDSKRLAKRKLIEENREKRRREELQKSIGHKPEPTDEEWELIKTVTEAHVATNAQGSHWKQKWKFLPEDIGQAPIVNAPEGGKVDLEAFSHFTKIITPAITRVVDFAKKLPMFCELPCEDQIILLKGCCMEIMSLRAAVRYDPESETLTLNGEMAVTRGQLKNGGLGVVSDAIFDLGMSLSSFNLDDTEVALLQAVLLMSSDRPGLACVERIEKYQDSFLLAFEHYINYRKHHVTHFWPKLLMKVTDLRMIGACHASRFLHMKVECPTELFPPLFLEVFED [R243W] it was “increasing interaction”; in that of MTPNSMTENGLTAWDKPKHCPDREHDWKLVGMSEACLHRKSHSERRSTLKNEQSSPHLIQTTWTSSIFHLDHDDVNDQSVSSAQTFQTEEKKCKGYIPSYLDKDELCVVCGDKATGYHYRCITCEGCKGFFRRTIQKNLHPSYSCKYEGKCVIDKVTRNQCQECRFKKCIYVGMATDLVLDDSKRLAKRKLIEENREKRRREELQKSIGHKPEPTDEEWELIKTVTEAHVATNAQGSHWKQKRKFLPEDIGQAPIVNAPEGGKVDLEAFSHFTKIITPAITRVVDFAKKLPMFCELPCEDQIILLKGCCMEIMSLRAAVRYDPESETLTLNGEMAVTRGQLKNGGLGVVSDAIFDLGMSLSSFNLDDTEVALLQAVLLMSSDRPGLACVERIEKYQDSFLLAFEHYINYRKHHVTHFWPKLLMKVTDLRMIGACHASRFLHMKVECPTELFPPLFLQVFED [E457Q], “decreasing interaction”.

The variants in a further experiment derive from B1. The settings on record: with ncor2_human NCOR2, Q9Y618.
Regarding MTPNSMTENGLTAWDKPKHCPDREHDWKLVGMSEACLHRKSHSERRSTLKNEQSSPHLIQTTWTSSIFHLDHDDVNDQSVSSAQTFQTEEKKCKGYIPSYLDKDELCVVCGDKATGYHYRCITCEGCKGFFRRTIQKNLHPSYSCKYEGKCVIDKVTRNQCQECRFKKCIYVGMATDLVLDDSKRLAKRKLIEENREKRRREELQKSIGHKPERTDEEWELIKTVTEAHVATNAQGSHWKQKRKFLPEDIGQAPIVNAPEGGKVDLEAFSHFTKIITPAITRVVDFAKKLPMFCELPCEDQIILLKGCCMEIMSLRAAVRYDPESETLTLNGEMAVTRGQLKNGGLGVVSDAIFDLGMSLSSFNLDDTEVALLQAVLLMSSDRPGLACVERIEKYQDSFLLAFEHYINYRKHHVTHFWPKLLMKVTDLRMIGACHASRFLHMKVECPTELFPPLFLEVFED [P214R], the “effect of a mutation on the interaction” value is listed as “decreasing interaction”.
Still for that read-out and setting: in the case of MTPNSMTENGLTAWDKPKHCPDREHDWKLVGMSEACLHRKSHSERRSTLKNEQSSPHLIQTTWTSSIFHLDHDDVNDQSVSSAQTFQTEEKKCKGYIPSYLDKDELCVVCGDKATGYHYRCITCEGCKGFFRRTIQKNLHPSYSCKYEGKCVIDKVTRNQCQECRFKKCIYVGMATDLVLDDSKRLAKRKLIEENREKRRREELQKSIGHKPEPTDEEWELIKTVTEGGVAANAQGSHWKQKRKFLPEDIGQAPIVNAPEGGKVDLEAFSHFTKIITPAITRVVDFAKKLPMFCELPCEDQIILLKGCCMEIMSLRAAVRYDPESETLTLNGEMAVTRGQLKNGGLGVVSDAIFDLGMSLSSFNLDDTEVALLQAVLLMSSDRPGLACVERIEKYQDSFLLAFEHYINYRKHHVTHFWPKLLMKVTDLRMIGACHASRFLHMKVECPTELFPPLFLEVFED [A228G;H229G;T232A] it was “decreasing interaction”.
For MTPNSMTENGLTAWDKPKHCPDREHDWKLVGMSEACLHRKSHSERRSTLKNEQSSPHLIQTTWTSSIFHLDHDDVNDQSVSSAQTFQTEEKKCKGYIPSYLDKDELCVVCGDKATGYHYRCITCEGCKGFFRRTIQKNLHPSYSCKYEGKCVIDKVTRNQCQECRFKKCIYVGMATDLVLDDSKRLAKRKLIEENREKRRREELQKSIGHKPEPTDEEWELIKTVTEAHVATNAQGSHWKQKWKFLPEDIGQAPIVNAPEGGKVDLEAFSHFTKIITPAITRVVDFAKKLPMFCELPCEDQIILLKGCCMEIMSLRAAVRYDPESETLTLNGEMAVTRGQLKNGGLGVVSDAIFDLGMSLSSFNLDDTEVALLQAVLLMSSDRPGLACVERIEKYQDSFLLAFEHYINYRKHHVTHFWPKLLMKVTDLRMIGACHASRFLHMKVECPTELFPPLFLEVFED [R243W], the “effect of a mutation on the interaction” value is recorded as “increasing interaction”.

Source of the values: IntAct's records for PubMed 20956942.
